This test deals with HIV-1 glycoprotein gp120 (HIV-1) (UniProt P04578). The test is described as follows: ELISA.

With recombinant 2G12 mAb (IgG1) (antibody), the EC50 (in general, the concentration giving half of the maximal effect) was determined as 2.3 pM. This lies in the picomolar range.

For the origin of these results see paper PMC5632219.
